This note sets out measurements from patent publication US20050089521A1 (published 2005).

The assay concerns the target T1, human trkC (human, UniProt Q16288 32-429, limits assumed).
T1 construct: also called htrkC; trkC receptor
Description: BIAcore analysis (SPR); format not stated.

B1: mouse anti-trkC agonist monoclonal antibody 2256 (antibody, V domains shown)
VH: QVQLQQPGAELVKPGASVKLSCKASGYTFTSYWMHWVKQRPGQGLEWIGEIYPSNGRTNYNEKFKSKATLTVDKSSSTAYMQLSSLTSEDSAVYYCARKYYYGNSYRSWYFDVWGAGTTLTVS
VL: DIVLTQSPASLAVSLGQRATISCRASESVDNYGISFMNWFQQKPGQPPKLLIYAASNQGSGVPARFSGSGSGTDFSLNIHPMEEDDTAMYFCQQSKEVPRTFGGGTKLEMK
Regarding B1, the Kd was about 40 nM.

B2: humanized anti-trkC agonist antibody A5 (antibody, V domains shown)
VH: QVQLVQSGAEVKKPGASVKVSCKASGYTFTSYRIHWVRQAPGQGLEWMGEIYPSNARTNYNEKFKSRVTMTRDTSTSTVYMELSSLRSEDTAVYYCARKYYYGNTRRSWYFDVWGQGTTVTVS
VL: DIQMTQSPSSLSASVGDRVTITCRASESIDNYGISFLAWYQQKPGKAPKLLIYAASNRGSGVPSRFSGSGSGTDFTFTISSLQPEDIATYYCQQSKTVPRTFGQGTKLEIKR
notes: also called humanized monoclonal antibody A5
In turn, B2 displayed a Kd of about 0.28 nM.

One may read the Kd as the equilibrium constant for the complex coming apart. High values mean weaker binding, low ones tighter binding.
